Data: paper PMC3690454, “14-3-3 Proteins Interact with a Hybrid Prenyl-Phosphorylation Motif to Inhibit G Proteins” (Cell, 2013)
Square brackets hold non-standard residues; d marks the D form. Ends that are not written are not given here. * marks the point of attachment. Geranylgeranyl = CC(C)=CCC/C(C)=C/CC/C(C)=C/CC/C(C)=C/C*; Biotin = O=C1N[C@H]2[C@H](CS[C@H]2CCCCC(=O)*)N1; pS = N[C@@H](COP(=O)(O)O)C(=O)O; Ahx = NCCCCCC(=O)O

Target: T1, hexa-His-tagged 14-3-3ζ (UniProt P63104 1-245)
T1 construct: 14-3-3ζ, expressed essentially as in Kostelecky et al., 2009; eluted as a dimer of ~60 kDa; also called recombinant 14-3-3ζ; 14-3-3ζ domain; source: E. coli BL21(DE3) Star, purified (HisTrap, size-exclusion chromatography)
T1 sequence: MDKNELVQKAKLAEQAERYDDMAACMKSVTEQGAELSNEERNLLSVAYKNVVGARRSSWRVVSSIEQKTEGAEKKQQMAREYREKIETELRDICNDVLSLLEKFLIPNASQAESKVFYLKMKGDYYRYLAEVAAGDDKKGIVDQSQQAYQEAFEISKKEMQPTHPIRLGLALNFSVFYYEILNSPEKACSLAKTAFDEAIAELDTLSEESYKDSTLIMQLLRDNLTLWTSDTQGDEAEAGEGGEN
Assay: BLI; Octet RED96; biotinylated peptides immobilised on streptavidin biosensors; dilution series of 14-3-3ζ; 25 mM Tris, 150 mM NaCl, 0.1% Tween-20; KD of +P-F by steady-state analysis
Conditions: both partners purified

B1: biotinylated Rap1A C-terminal peptide, phosphorylated and geranylgeranylated (peptide)
peptide: {Biotin-Ahx}-EKKKPKKK[pS]C(Geranylgeranyl)
notes: C terminus of Rap1A up to the prenylated C181; also called Rap1A peptide; source: synthetic peptide
Kd: ~0.025 µM
